# Measurements: paper PMC2120718
# Test: flow cytometry of surface TCR, anti-CD3 epsilon UCHT1
# Settings: glycan lost; control: JGN transfected with wild-type CD3 gamma
row,Substance,expression_or_secretion
1,CD3 gamma: N30Q,no change
2,CD3 gamma: N70Q,no change
